Experimental data taken from paper PMC7494997.

Target: SG7
Test: flow cytometry on yeast-displayed VISTA
Details: chain shown with the change; 4 nM SG7; parent: est. 100; read off a plot

Chain of SG7 (chain, as listed by the source, chain 1 of 2): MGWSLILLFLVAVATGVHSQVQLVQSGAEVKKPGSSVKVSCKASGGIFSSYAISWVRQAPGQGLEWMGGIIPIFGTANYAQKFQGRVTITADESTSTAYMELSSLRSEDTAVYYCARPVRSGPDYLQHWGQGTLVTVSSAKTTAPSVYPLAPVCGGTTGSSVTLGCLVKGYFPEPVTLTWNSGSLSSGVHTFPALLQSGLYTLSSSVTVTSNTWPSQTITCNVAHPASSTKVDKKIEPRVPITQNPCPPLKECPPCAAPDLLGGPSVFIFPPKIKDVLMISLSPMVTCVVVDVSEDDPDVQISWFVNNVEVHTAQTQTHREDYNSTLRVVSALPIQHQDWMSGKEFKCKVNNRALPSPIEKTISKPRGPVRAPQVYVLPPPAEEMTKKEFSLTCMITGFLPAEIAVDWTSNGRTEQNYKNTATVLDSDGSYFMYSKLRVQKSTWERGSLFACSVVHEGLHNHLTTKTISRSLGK
Chain of SG7 (chain, as listed by the source, chain 2 of 2): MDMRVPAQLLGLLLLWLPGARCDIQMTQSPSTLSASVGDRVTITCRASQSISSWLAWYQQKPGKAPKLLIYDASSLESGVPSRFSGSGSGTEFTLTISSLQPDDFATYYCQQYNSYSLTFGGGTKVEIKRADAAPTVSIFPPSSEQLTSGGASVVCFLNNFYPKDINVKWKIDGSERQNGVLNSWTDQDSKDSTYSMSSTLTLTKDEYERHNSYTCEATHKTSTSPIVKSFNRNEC

Binder	percent of parent [% WT]
yeast-displayed mVISTA E124A (protein) FKVTTPYSLYVCPEGQNATLTCRILGPVSKGHDVTIYKTWYLSSRGEVQMCKEHRPIRNFTLQHLQHHGSHLKANASHDQPQKHGLELASDHHGNFSITLRNVTPRDSGLYCCLVIELKNHHPAQRFYGSMELQVQAGKGSGSTCMASNEQDSDSITAA	9
yeast-displayed mVISTA H121A (protein) FKVTTPYSLYVCPEGQNATLTCRILGPVSKGHDVTIYKTWYLSSRGEVQMCKEHRPIRNFTLQHLQHHGSHLKANASHDQPQKHGLELASDHHGNFSITLRNVTPRDSGLYCCLVIELKNAHPEQRFYGSMELQVQAGKGSGSTCMASNEQDSDSITAA	1

The remaining lines, values ahead:

percent of parent [% WT]	Binder
13	yeast-displayed mVISTA I36A (protein) FKVTTPYSLYVCPEGQNATLTCRILGPVSKGHDVTAYKTWYLSSRGEVQMCKEHRPIRNFTLQHLQHHGSHLKANASHDQPQKHGLELASDHHGNFSITLRNVTPRDSGLYCCLVIELKNHHPEQRFYGSMELQVQAGKGSGSTCMASNEQDSDSITAA
63	yeast-displayed mVISTA K38A (protein) FKVTTPYSLYVCPEGQNATLTCRILGPVSKGHDVTIYATWYLSSRGEVQMCKEHRPIRNFTLQHLQHHGSHLKANASHDQPQKHGLELASDHHGNFSITLRNVTPRDSGLYCCLVIELKNHHPEQRFYGSMELQVQAGKGSGSTCMASNEQDSDSITAA
